Measured values: patent publication US20140072613A1, “Compositions and Methods for Treating Cutaneous Scarring” (priority 2012, published 2014)

Key:
Test in all cases: biochemical
Assay type in all cases: biochemical
[1] = target: 266 human kinases (Homo sapiens, UniProt P06213); conditions: IR(h), 100 μM
Method in brief: (§1)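 Radiometric filter-binding format: a positively charged substrate takes up radiolabelled phosphate from ATP unless the kinase is inhibited, then is captured on a negatively charged filter membrane. Counts from scintillation are expressed relative to a 100% activity control.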

[2] = target: 266 human kinases (Homo sapiens, UniProt P06239); conditions: 100 μM
266 human kinases (Homo sapiens, UniProt P06239), sequence (P06239 whole entry): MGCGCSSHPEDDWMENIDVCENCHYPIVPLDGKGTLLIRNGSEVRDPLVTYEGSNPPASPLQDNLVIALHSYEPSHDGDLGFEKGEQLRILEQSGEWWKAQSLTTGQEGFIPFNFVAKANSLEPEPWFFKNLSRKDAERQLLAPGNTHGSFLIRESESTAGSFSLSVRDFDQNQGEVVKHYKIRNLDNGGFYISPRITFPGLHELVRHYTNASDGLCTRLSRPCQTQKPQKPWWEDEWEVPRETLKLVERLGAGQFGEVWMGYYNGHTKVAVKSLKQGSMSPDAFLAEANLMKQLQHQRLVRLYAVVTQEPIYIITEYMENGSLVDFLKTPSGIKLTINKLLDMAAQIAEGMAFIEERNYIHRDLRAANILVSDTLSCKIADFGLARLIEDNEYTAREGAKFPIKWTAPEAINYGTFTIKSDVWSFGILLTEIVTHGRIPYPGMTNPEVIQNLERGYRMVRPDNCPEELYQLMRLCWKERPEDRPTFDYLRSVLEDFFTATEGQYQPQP
Method in brief: as §1

[3] = target: 266 human kinases (Homo sapiens, UniProt P09619); conditions: PDGFRβ(h); 100 μM
266 human kinases (Homo sapiens, UniProt P09619), sequence (P09619 33-1106): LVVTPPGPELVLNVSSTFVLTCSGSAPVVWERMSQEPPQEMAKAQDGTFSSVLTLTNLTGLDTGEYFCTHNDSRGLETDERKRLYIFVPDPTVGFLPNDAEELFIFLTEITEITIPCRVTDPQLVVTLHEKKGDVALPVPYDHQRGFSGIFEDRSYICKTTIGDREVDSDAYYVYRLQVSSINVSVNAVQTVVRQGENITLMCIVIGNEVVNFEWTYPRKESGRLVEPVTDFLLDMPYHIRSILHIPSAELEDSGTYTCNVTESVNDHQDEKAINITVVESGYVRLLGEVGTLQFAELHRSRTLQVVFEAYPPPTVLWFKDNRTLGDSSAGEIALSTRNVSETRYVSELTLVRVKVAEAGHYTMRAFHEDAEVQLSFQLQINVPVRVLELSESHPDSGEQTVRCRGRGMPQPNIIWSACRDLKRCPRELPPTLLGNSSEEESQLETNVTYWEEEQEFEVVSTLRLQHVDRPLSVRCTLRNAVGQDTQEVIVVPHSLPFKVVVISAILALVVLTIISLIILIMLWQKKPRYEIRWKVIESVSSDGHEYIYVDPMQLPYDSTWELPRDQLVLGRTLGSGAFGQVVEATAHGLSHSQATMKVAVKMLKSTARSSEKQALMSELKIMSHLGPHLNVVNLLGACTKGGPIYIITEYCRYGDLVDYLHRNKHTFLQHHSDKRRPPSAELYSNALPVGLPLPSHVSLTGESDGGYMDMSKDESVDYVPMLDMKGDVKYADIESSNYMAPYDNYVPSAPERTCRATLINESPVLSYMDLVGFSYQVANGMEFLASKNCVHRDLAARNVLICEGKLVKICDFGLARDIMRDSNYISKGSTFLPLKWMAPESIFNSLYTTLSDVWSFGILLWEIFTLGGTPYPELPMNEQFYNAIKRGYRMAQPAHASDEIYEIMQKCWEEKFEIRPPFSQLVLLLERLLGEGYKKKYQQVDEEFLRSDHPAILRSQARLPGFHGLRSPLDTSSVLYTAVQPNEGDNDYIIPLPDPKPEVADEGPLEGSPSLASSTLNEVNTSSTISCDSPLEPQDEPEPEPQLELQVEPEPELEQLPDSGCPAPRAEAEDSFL
Method in brief: as §1

[4] = target: 266 human kinases (Homo sapiens, UniProt P53779); conditions: JNK3(h); 100 μM
266 human kinases (Homo sapiens, UniProt P53779), sequence (P53779 whole entry): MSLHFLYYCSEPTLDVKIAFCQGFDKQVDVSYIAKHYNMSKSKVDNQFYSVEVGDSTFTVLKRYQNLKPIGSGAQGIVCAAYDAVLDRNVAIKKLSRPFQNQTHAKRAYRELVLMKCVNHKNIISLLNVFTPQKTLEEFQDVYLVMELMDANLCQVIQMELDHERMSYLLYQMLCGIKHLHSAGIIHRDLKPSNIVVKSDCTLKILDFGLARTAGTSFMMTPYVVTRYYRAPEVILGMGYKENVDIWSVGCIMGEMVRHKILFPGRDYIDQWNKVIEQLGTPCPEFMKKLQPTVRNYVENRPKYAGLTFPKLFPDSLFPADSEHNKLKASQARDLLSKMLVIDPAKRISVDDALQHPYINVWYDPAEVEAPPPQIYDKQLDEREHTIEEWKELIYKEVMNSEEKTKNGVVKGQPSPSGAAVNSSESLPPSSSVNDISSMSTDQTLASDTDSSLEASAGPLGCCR
Method in brief: as §1

[5] = target: 266 human kinases (Homo sapiens, UniProt P80192); conditions: MLK1(h); 100 μM
266 human kinases (Homo sapiens, UniProt P80192), sequence (P80192 whole entry): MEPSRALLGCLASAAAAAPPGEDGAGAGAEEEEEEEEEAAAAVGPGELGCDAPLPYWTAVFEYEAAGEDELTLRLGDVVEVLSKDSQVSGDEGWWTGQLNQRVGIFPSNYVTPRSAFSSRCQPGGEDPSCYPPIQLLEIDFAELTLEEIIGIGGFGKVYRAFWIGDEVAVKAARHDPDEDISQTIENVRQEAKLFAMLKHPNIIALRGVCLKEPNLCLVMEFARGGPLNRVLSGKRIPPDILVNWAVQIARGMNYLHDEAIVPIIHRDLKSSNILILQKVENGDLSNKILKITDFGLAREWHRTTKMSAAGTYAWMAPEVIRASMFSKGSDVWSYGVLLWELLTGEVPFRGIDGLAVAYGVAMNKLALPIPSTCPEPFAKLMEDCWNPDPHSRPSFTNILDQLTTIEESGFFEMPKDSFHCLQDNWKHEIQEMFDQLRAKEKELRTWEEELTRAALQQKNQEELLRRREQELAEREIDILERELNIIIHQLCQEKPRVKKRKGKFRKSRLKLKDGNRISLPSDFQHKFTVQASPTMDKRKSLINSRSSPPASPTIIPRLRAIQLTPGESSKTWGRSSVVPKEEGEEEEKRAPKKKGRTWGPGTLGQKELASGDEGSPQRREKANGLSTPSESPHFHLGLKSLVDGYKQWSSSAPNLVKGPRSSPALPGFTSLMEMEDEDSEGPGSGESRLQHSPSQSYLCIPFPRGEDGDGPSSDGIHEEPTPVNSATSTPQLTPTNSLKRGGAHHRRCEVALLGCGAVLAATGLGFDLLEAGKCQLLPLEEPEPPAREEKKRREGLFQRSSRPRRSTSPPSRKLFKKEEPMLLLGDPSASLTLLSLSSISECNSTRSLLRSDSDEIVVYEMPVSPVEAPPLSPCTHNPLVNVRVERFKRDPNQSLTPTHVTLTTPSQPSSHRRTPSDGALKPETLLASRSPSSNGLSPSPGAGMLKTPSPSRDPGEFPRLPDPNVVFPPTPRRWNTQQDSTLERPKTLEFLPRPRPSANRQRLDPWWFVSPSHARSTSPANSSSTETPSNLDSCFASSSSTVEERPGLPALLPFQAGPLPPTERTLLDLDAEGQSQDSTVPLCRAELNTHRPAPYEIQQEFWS
Method in brief: as §1

[6] = target: T1, 266 human kinases (Homo sapiens, UniProt Q12866); conditions: Mer(h); 100 μM
T1 sequence (Q12866 21-999): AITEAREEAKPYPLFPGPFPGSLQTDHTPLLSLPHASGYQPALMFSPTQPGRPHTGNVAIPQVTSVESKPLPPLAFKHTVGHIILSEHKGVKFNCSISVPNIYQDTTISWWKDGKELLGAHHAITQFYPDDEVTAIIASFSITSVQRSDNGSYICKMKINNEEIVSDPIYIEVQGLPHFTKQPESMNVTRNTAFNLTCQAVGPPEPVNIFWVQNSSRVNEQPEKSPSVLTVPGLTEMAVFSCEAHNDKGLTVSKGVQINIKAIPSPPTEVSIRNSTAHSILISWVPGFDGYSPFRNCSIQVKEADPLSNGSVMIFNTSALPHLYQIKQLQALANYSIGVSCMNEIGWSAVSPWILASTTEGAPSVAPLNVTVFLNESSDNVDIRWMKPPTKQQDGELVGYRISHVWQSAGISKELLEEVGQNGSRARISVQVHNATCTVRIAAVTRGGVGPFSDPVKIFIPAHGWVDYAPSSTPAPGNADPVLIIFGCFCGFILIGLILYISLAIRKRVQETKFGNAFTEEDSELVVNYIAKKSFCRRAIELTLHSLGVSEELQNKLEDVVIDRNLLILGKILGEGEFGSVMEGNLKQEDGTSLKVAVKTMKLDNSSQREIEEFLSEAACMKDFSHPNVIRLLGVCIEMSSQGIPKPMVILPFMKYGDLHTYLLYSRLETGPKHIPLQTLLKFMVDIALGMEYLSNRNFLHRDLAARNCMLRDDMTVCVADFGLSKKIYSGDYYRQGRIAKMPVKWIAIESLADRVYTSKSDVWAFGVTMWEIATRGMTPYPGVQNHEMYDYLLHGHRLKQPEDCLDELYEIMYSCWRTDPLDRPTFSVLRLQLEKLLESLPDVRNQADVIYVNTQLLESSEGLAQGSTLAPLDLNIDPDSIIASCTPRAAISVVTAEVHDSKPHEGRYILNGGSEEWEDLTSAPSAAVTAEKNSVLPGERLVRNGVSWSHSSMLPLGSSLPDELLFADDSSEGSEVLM
Method in brief: as §1

[7] = target: 266 human kinases (Homo sapiens, UniProt Q15759); conditions: SAPK2b(h); 100 μM
266 human kinases (Homo sapiens, UniProt Q15759), sequence (Q15759 whole entry): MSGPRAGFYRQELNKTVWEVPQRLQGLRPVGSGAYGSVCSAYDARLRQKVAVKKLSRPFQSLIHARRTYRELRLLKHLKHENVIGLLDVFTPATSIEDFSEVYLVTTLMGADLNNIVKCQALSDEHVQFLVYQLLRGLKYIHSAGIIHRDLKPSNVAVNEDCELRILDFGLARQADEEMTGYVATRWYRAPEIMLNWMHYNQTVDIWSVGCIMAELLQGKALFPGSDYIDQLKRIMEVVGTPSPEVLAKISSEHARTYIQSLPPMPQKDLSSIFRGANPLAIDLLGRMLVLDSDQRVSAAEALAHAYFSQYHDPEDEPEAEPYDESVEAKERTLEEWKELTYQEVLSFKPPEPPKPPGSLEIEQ
Method in brief: as §1

[8] = target: T2, 266 human kinases (Homo sapiens, UniProt Q99683); conditions: ASK1(h); 100 μM
T2 sequence (Q99683 1-1374): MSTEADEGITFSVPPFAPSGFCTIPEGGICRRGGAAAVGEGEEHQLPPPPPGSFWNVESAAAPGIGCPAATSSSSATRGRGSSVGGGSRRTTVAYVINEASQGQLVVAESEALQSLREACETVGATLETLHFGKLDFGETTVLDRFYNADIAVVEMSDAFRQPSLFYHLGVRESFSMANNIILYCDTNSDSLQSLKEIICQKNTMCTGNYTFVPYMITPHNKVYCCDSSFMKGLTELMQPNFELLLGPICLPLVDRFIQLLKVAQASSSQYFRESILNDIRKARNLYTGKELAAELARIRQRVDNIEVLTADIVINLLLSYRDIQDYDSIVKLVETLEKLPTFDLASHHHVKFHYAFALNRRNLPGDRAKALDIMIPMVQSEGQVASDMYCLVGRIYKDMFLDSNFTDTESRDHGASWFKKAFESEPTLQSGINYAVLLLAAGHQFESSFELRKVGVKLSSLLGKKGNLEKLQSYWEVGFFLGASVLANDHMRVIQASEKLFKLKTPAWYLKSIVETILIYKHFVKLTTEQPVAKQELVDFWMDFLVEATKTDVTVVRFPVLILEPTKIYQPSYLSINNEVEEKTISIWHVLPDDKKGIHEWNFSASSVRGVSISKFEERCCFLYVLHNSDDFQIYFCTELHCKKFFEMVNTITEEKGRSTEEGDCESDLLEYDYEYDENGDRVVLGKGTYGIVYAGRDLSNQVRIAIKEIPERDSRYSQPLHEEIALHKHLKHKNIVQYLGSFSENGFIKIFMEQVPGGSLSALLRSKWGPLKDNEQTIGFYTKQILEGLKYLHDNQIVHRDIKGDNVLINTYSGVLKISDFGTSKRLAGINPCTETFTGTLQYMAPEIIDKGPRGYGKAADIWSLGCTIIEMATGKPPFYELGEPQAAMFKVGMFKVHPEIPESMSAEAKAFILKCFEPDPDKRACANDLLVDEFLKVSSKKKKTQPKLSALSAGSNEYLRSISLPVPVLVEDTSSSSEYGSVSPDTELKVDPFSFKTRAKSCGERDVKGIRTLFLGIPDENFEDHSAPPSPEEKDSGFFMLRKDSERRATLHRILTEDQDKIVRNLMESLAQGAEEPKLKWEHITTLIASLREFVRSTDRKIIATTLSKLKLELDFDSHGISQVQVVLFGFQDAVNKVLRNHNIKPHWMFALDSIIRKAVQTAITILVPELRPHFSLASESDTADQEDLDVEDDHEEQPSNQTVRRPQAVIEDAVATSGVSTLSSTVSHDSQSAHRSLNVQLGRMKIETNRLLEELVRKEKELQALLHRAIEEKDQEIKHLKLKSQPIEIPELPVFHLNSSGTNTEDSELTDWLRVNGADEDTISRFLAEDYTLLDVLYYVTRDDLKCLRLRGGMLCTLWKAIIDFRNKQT
Method in brief: as §1

[9] = target: 266 human kinases (Homo sapiens, UniProt Q9Y6E0); conditions: MST3(h); 100 μM
266 human kinases (Homo sapiens, UniProt Q9Y6E0), sequence (Q9Y6E0 whole entry): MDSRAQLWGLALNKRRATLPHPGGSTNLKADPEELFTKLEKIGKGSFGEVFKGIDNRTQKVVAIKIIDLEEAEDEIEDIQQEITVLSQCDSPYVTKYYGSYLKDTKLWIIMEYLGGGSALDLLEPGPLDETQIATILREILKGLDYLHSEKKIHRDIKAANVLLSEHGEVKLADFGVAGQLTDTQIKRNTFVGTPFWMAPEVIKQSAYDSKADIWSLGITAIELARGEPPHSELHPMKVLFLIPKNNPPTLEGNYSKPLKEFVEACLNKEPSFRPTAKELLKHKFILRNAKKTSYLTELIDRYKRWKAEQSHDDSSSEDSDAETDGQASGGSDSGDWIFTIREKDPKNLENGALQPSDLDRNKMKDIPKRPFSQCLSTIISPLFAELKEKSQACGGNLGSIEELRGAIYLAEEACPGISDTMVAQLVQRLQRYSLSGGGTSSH
Method in brief: as §1

Row | Sequence | % activity ([1]; activated) | % activity [1] | % activity ([2]; Lck(h) activated) | % activity ([2]; Lck(h)) | % activity [3] | % activity [4] | % activity [5] | % activity [6] | % activity [7] | % activity [8] | % activity [9]
1 | HRRIKAWLKKIKALARQLGVAA (mammal) [MMI-0500] | 90% | 95% | 76% | 359% | 40% | 171% | 43% | 17% | 42% | −4% | 4%
2 | YARAAARQARAKALNRQLGVA (mammal) [MMI-0200] | – | 90% | 90% | – | 137% | 90% | 84% | 90% | 95% | 101% | 95%
